# Reference: patent US20110184016A1
# What was measured:
# [1] = target: human protease-activated receptor 2 (human) (UniProt P55085); test: cell-based or functional assay
# [2] = target: T1, human protease-activated receptor 4 (human) (UniProt Q96RI0); test: cell-based or functional assay
# T1 sequence (looked up): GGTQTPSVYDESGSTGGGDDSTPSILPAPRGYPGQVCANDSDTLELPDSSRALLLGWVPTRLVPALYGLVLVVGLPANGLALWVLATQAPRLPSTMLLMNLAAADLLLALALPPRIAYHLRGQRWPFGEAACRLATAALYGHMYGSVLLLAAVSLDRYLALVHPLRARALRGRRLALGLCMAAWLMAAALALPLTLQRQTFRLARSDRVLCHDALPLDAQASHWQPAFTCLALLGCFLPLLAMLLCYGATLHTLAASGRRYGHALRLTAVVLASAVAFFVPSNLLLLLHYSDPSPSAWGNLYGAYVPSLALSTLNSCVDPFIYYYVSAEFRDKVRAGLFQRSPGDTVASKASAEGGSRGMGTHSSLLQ
# Chain of recombinant human cathepsin S (P25774 115-331): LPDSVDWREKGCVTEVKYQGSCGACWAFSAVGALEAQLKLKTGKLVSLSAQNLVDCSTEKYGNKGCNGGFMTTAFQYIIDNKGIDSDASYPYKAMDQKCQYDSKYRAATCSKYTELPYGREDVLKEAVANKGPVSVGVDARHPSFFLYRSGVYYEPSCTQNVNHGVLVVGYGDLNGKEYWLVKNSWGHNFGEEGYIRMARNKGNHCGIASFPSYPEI
substance,measurement,setting,value
recombinant human cathepsin S (from UniProt P25774 115-331) (enzyme),"calcium flux (ratiometric Fura-2 imaging, transfected HeLa cells)",[1],30 nM
same,"calcium flux (ratiometric Fura-2 imaging, transfected HeLa cells)",[2],30 nM
